From patent US20160145299A1 (CENTRE NATIONAL DE LA RECHERCHE SCIENTIFIQUE, published 2016)
Where no end group is shown, it is not given here.

Molecular target: cdk2/cyclin A complex (UniProt P24941 1-298; P20248 1-432)
Assay: cell-based or functional assay

KKQVRMAHLVLT (also: fluorescent label Cy5 or FITC, position not given here) [Peptide targeting CDK/Cyclin C4: KKQVRMAHLVLT (SEQ ID No: 8)]
IC50 of cell proliferation, Hela, C4 delivered with Short6: 80 nM | IC50 of cell proliferation, Hela, C4 delivered with short7: 45 nM | IC50 of cell proliferation, Hela, C4 delivered with short11: 150 nM | IC50 of cell proliferation, MCF7, C4 delivered with Short6: 50 nM | IC50 of cell proliferation, MCF7, C4 delivered with short7: 80 nM | IC50 of cell proliferation, MCF7, C4 delivered with short11: 200 nM
